Data published in paper PMC6017093.

Assays:
[1] = biological target: T1, CD20 on Pre-B ALL bone marrow cells (human) (UniProt P11836); assay: flow cytometry (cell binding); conditions: T-ALL (CD20-low) control 1.5%, DPBS with 4.5 g/L glucose, 5 mM MgCl2, 0.1 mg/mL yeast tRNA, 1 g/L BSA (10% FBS in flow assay), on ice 30 min, aptamer heated 95 C 5 min and snap-cooled, pH …
T1 sequence: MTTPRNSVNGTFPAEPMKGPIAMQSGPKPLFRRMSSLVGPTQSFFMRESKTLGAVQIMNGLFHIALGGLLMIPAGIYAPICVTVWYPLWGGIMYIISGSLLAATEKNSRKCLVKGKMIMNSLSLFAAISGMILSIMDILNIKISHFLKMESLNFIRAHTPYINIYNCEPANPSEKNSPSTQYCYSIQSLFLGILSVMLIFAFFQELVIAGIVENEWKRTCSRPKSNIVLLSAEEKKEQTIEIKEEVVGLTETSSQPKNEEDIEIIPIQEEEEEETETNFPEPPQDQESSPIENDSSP

[2] = biological target: T2, CD20 (B-lymphocyte antigen), expressed on HEK293T cells (human) (UniProt P11836); assay: flow cytometry (cell binding); conditions: no shift on untransfected HEK293T, DPBS with 4.5 g/L glucose, 5 mM MgCl2, 0.1 mg/mL yeast tRNA, 1 g/L BSA (10% FBS in flow assay), on ice 30 min, aptamer heated 95 C 5 min and snap-cooled, pH …
T2 sequence: T1 sequence

Sequence: ATACCAGCTTATTCAATTGGAATAAGGGGGTATTACTGTCTGGTAAACAAACGCTATGCGAGGGGATTCAAGATAGTAAGTGCAATCT [AP-1]
- binding signal (% positive cells) [1]: 71.4
- Kd [2]: 96.9 nM
